# Source: publication PMC6066478, “Structural visualization of RNA polymerase III transcription machineries” (Cell Discovery, 2018)
# T1: Bdp1 (B double prime) (Saccharomyces cerevisiae, UniProt P46678 1-594)
# T1 construct: Bdp1, S. cerevisiae, PCR amplified from genomic DNA; Cloned in pET21b(+) at SalI and NotI; The methods cite the purification of B''(138-594) only as the procedure followed; also called subunit of TFIIIB
# T1 sequence: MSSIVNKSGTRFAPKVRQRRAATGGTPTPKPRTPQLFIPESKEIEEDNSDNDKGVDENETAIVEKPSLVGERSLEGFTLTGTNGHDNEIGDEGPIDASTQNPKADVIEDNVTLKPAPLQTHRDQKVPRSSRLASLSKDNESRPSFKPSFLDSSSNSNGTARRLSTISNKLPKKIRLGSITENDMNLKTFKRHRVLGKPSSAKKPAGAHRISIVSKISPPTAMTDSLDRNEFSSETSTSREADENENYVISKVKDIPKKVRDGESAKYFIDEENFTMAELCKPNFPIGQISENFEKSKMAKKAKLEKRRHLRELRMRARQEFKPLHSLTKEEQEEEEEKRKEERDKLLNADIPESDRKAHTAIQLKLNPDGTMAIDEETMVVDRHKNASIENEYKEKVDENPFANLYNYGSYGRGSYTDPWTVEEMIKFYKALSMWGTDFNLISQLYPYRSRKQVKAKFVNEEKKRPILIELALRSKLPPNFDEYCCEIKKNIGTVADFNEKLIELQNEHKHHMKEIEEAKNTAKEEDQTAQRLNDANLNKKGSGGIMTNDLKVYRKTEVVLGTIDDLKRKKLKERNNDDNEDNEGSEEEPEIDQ
# T2: Bdp1 Δ355–372 (Saccharomyces cerevisiae, UniProt P46678 1-594, Δ355–372)
# T2 construct: Same construct as m3 apart from the deletion; source: E. coli BL21 (DE3) pRARE, purified as the wild-type protein
# T2 sequence (looked up): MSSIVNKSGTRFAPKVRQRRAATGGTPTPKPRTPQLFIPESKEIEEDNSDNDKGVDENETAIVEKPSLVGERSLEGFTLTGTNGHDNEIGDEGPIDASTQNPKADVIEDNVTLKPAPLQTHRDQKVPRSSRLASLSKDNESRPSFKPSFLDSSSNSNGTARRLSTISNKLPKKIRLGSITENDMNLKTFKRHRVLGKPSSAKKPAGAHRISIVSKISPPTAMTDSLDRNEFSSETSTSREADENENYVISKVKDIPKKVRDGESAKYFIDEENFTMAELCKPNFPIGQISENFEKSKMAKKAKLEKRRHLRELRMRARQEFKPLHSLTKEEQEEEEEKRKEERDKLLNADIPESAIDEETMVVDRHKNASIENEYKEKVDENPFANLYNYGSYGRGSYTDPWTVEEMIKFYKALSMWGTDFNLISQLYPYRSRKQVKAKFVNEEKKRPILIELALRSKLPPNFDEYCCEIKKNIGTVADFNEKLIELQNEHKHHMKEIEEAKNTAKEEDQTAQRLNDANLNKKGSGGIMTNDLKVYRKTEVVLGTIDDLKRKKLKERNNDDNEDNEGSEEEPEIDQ
# Columns and labels:
# [1] = molecular target: T3, RNA polymerase III (17 subunits, incl. C160, C82/C34/C31, C53);Brf1N-TBPc-Brf1C chimera;Bdp1 (Saccharomyces cerevisiae;Saccharomyces …, UniProt P04051;P22276;P32349;P25441;P07703;P36121;P32910;P17890;P35718;P20434;P20435;P28 …, |internal_change|); assay: cryo-EM; complex on EC scaffold, RNA not seen; 4.5 Å; EMD-7533; PIC assembled at room temperature; assembly buffer not given in the material; settings: protein: native;recombinant;recombinant; tags: TAP tag on C53 C terminus (TEV-cleaved, calmodulin eluted);C-terminal 6xHis;C-terminal 6xHis; copies: 1;1;1;1;1;1;1;1;1;1;1;1;1;1;1;1;1;1;1; label: biotin 5' on strand 3; mismatched bubble +12 to +22 with RNA (strand 4); strands 2 and 3 both anneal to strand 1 (2-nt gap between them)
# Bdp1 (B double prime) = molecular target: T1, Bdp1 (B double prime); assay: cryo-EM structure; Pol III OC, 4.1 Å (TFIIIB 4.7 Å with soft mask): same assembly on the OC scaffold with a 10-nt mismatched bubble; settings: both partners purified
# [2] = molecular target: T3, RNA polymerase III (17 subunits, incl. …); assay: cryo-EM; ITC; 4.1 Å; EMD-7530; PIC assembled at room temperature; assembly buffer not given in the material; settings: protein: native;recombinant;recombinant; tags: TAP tag on C53 C terminus (TEV-cleaved, calmodulin eluted);C-terminal 6xHis;C-terminal 6xHis; copies: 1;1;1;1;1;1;1;1;1;1;1;1;1;1;1;1;1;1;1; label: biotin 5' on strand 3; mismatched bubble with RNA (strand 4, RNA written as printed); strands 2 and 3 both anneal to strand 1 (nick between them)
# [3] = molecular target: T3, RNA polymerase III (17 subunits, incl. …); assay: cryo-EM; OC; 4.1 Å; EMD-7531; PIC assembled at room temperature; assembly buffer not given in the material; settings: protein: native;recombinant;recombinant; tags: TAP tag on C53 C terminus (TEV-cleaved, calmodulin eluted);C-terminal 6xHis;C-terminal 6xHis; copies: 1;1;1;1;1;1;1;1;1;1;1;1;1;1;1;1;1;1;1; label: biotin 5' on strand 3; 10-nt mismatched bubble; strands 2 and 3 both anneal to strand 1 (nick between them)
# [4] = molecular target: T3, RNA polymerase III (17 subunits, incl. …); assay: cryo-EM; nOC, spontaneously melted; 4.8 Å; EMD-7532; PIC assembled at room temperature; assembly buffer not given in the material; settings: protein: native;recombinant;recombinant; tags: TAP tag on C53 C terminus (TEV-cleaved, calmodulin eluted);C-terminal 6xHis;C-terminal 6xHis; copies: 1;1;1;1;1;1;1;1;1;1;1;1;1;1;1;1;1;1;1; label: biotin 5' on strand 3; strand 1 fully paired; strands 2 and 3 both anneal to strand 1 (nick between them)
# [5] = molecular target: RNA polymerase III (17 subunits, incl. C160, C82/C34/C31, C53);Brf1N-TBPc-Brf1C chimera;Bdp1 Δ355-372 (Saccharomyces cerevisiae;Saccharomyces …, UniProt P04051;P22276;P32349;P25441;P07703;P36121;P32910;P17890;P35718;P20434;P20435;P28 …, |internal_change|del355-372); assay: cryo-EM; iOC, Brf1 ZR and C34 WH1 disordered; 8.5 Å; EMD-7534; PIC assembled at room temperature; assembly buffer not given in the material; settings: protein: native;recombinant;recombinant; tags: TAP tag on C53 C terminus (TEV-cleaved, calmodulin eluted);C-terminal 6xHis;C-terminal 6xHis; copies: 1;1;1;1;1;1;1;1;1;1;1;1;1;1;1;1;1;1;1; label: biotin 5' on strand 3; strand 1 fully paired; strands 2 and 3 both anneal to strand 1 (nick between them)
# Bdp1 Δ355–372 = molecular target: T2, Bdp1 Δ355–372; assay: cryo-EM structure; Pol III iOC (intermediate OC), about 8.5 Å (TFIIIB lobe 15-25 Å): assembly with Bdp1 Δ355–372 on the closed DNA scaffold, assembly buffer plus 60 mM KCl; map only, no model deposited; settings: both partners purified
binder,measurement,setting,value
EC scaffold with 20-mer RNA (mixed) DNA 1: ACGCCTTAACCAACTTGGCCATGGAGTCATTTTATCTTGTGTCACTTTTACAGAAAAAGTATTACTAATATATGTTGAAAAACTGGGGAATTCCATGGTCCGTA DNA 2: TTCAACATATATTAGTAATACTTTTTCTGTAAAAGTGACACAAGATAAAAATTTTTTTTGTCCAAGTTGGTTAAGGCGT DNA 3: TACGGACCATGGAATTCCCCAGT RNA: UUUUUUUUUUUAGACUCCAU,binding result,[1],binds
"C34 subunit of Pol III (natural protein, Saccharomyces cerevisiae, UniProt P32910 1-317, looked up, C34, subunit of the Pol III-specific heterotrimer C82/34/31, S. cerevisiae; WH1 residues 10-77, WH2 residues 78-158; Stood in the assay as a subunit of the whole Pol III; source: endogenous, purified from S. cerevisiae as a subunit of Pol III (TAP tag on C53)) MSGMIENGLQLSDNAKTLHSQMMSKGIGALFTQQELQKQMGIGSLTDLMSIVQELLDKNLIKLVKQNDELKFQGVLESEAQKKATMSAEEALVYSYIEASGREGIWSKTIKARTNLHQHVVLKCLKSLESQRYVKSVKSVKFPTRKIYMLYSLQPSVDITGGPWFTDGELDIEFINSLLTIVWRFISENTFPNGFKNFENGPKKNVFYAPNVKNYSTTQEILEFITAAQVANVELTPSNIRSLCEVLVYDDKLEKVTHDCYRVTLESILQMNQGEGEPEAGNKALEDEEEFSIFNYFKMFPASKHDKEVVYFDEWTI",binding result,Bdp1 (B double prime),binds
ITC scaffold with 6-mer RNA (mixed) DNA 1: CAACTTGGCCATGGAGTCATTTTATCTTGTGTCACTTTTACAGAAAAAGTATTACTAATATATGTTGAAAAACTGGGGAATTCCATGGTCCGTA DNA 2: TTTTCAACATATATTAGTAATACTTTTTCTGTATTTTTTTTTTTTTTTTAAATGACTCCATGGCCAAGTTG DNA 3: TACGGACCATGGAATTCCCCAGT ?: ACAAGA,binding result,[2],binds
OC (open complex) scaffold (dsDNA) DNA 1: CAACTTGGCCATGGAGTCATTTTATCTTGTGTCACTTTTACAGAAAAAGTATTACTAATATATGTTGAAAAACTGGGGAATTCCATGGTCCGTA DNA 2: TTTTCAACATATATTAGTAATACTTTTTCTGTATTTTTTTTTTAAGATAAAATGACTCCATGGCCAAGTTG DNA 3: TACGGACCATGGAATTCCCCAGT,binding result,[3],binds
CC (closed complex) scaffold (dsDNA) DNA 1: CAACTTGGCCATGGAGTCATTTTATCTTGTGTCACTTTTACAGAAAAAGTATTACTAATATATGTTGAAAAACTGGGGAATTCCATGGTCCGTA DNA 2: TTTTCAACATATATTAGTAATACTTTTTCTGTAAAAGTGACACAAGATAAAATGACTCCATGGCCAAGTTG DNA 3: TACGGACCATGGAATTCCCCAGT,binding result,[4],binds
same,binding result,[5],binds
"TATA box-binding protein (TBP) core domain, the TBPc part of the chimera Brf1N-TBPc-Brf1C (domain or fragment, Saccharomyces cerevisiae, UniProt P13393 61-240, looked up, TBP, S. cerevisiae, core domain residues 61-240; In the assay TBPc stood inside the chain of the chimera m2, between Brf1 1-382 and Brf1 439-end; this molecule is made only for the rows of TBP with Brf1 and Bdp1; source: E. coli BL21 (DE3) pRARE, purified, as part of the chimera m2) SGIVPTLQNIVATVTLGCRLDLKTVALHARNAEYNPKRFAAVIMRIREPKTTALIFASGKMVVTGAKSEDDSKLASRKYARIIQKIGFAAKFTDFKIQNIVGSCDVKFPIRLEGLAFSHGTFSSYEPELFPGLIYRMVKPKIVLLIFVSGKIVLTGAKQREEIYQAFEAIYPVLSEFRKM",binding result,Bdp1 (B double prime),binds
"chimera protein Brf1N-TBPc-Brf1C (other, Saccharomyces cerevisiae, Brf1 (TFIIB-related factor), S. cerevisiae, N-terminal part up to residue 382 (residues 383-438 of Brf1 were replaced by TBPc); linker between Brf1 residue 382 and TBP residue 61; linker between TBP residue 240 and Brf1 residue 439; Brf1, S. cerevisiae, C-terminal part from residue 439 to the end of full-length Brf1; Cloned in pET21b(+) at SalI and NotI; The printed offset (632-649 in the chimera …)) MPVCKNCHGTEFERDLSNANNDLVCKACGVVSEDNPIVSEVTFGETSAGAAVVQGSFIGAGQSHAAFGGSSALESREATLNNARRKLRAVSYALHIPEYITDAAFQWYKLALANNFVQGRRSQNVIASCLYVACRKEKTHHMLIDFSSRLQVSVYSIGATFLKMVKKLHITELPLADPSLFIQHFAEKLDLADKKIKVVKDAVKLAQRMSKDWMFEGRRPAGIAGACILLACRMNNLRRTHTEIVAVSHVAEETLQQRLNEFKNTKAAKLSVQKFRENDVEDGEARPPSFVKNRKKERKIKDSLDKEEMFQTSEEALNKNPILTQVLGEQELSSKEVLFYLKQFSERRARVVERIKATNGIDGENIYHEGSENETRKRKLSEAMPWSGIVPTLQNIVATVTLGCRLDLKTVALHARNAEYNPKRFAAVIMRIREPKTTALIFASGKMVVTGAKSEDDSKLASRKYARIIQKIGFAAKFTDFKIQNIVGSCDVKFPIRLEGLAFSHGTFSSYEPELFPGLIYRMVKPKIVLLIFVSGKIVLTGAKQREEIYQAFEAIYPVLSEFRKMGSGSGSGSGSGSPRNLHLLPTTDTYLSKVSDDPDNLEDVDDEELNAHLLNEEASKLKERIWIGLNADFLLEQESKRLKQEADIATGNTSVKKKRTRRRNNTRSDEPTKTVDAAAAIGLMSDLQDKSGLHAALKAAEESGDFTTADSVKNMLQKASFSKKINYDAIDGLFR",binding result,Bdp1 (B double prime),binds
same,binding result,Bdp1 Δ355–372,binds
